From the supplement of paper PMC9112550, “Optimization of the antimicrobial peptide Bac7 by deep mutational scanning” (BMC Biology, 2022)

Test system: Escherichia coli TOP10
Test: shrunken log2 fold change of peptide-encoding DNA abundance (4.5 h post-induction vs induction); higher = less antimicrobial activity (less host growth inhibition)
Details: time post-induction: 4.5 h; library: site-saturation at positions 5, 18, 19, 20
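Note: peptides expressed intracellularly from a pBAD plasmid library in pooled LB shake-flask culture, induced with 0.3% L-arabinose, DNA abundance read by NGS, three biological replicates, DESeq2 with apeglm shrinkage.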

Sequence	shrunken log2 fold change
RRIRPRPPRLPRPRPRPYNRPRP	-0.0087
RRIRDRPPRLPRPRPRPNHQPRP	-0.303
RRIRWRPPRLPRPRPRPRERPRP	0.859
RRIRGRPPRLPRPRPRPPIWPRP	0.67
RRIRQRPPRLPRPRPRPFRVPRP	-0.153
RRIRIRPPRLPRPRPRPFLIPRP	-0.606
RRIRYRPPRLPRPRPRPVWHPRP	-0.0131
RRIRLRPPRLPRPRPRPESHPRP	-0.118
RRIRTRPPRLPRPRPRPNTHPRP	-0.451
RRIRGRPPRLPRPRPRPKYRPRP	0.000233
RRIRYRPPRLPRPRPRPAFSPRP	0.0115
RRIRLRPPRLPRPRPRPMNTPRP	-0.524
RRIRRRPPRLPRPRPRPTELPRP	0.42
RRIRFRPPRLPRPRPRPSWHPRP	-0.475
RRIRDRPPRLPRPRPRPVTQPRP	-0.0479
RRIRNRPPRLPRPRPRPCQTPRP	-0.0964
RRIRNRPPRLPRPRPRPVSYPRP	0.0156
RRIRERPPRLPRPRPRPCGQPRP	-0.0982
RRIRTRPPRLPRPRPRPMFSPRP	-0.263
RRIRYRPPRLPRPRPRPYITPRP	-0.529
RRIRHRPPRLPRPRPRPLTQPRP	-0.417
RRIRSRPPRLPRPRPRPIVRPRP	-0.11
RRIRQRPPRLPRPRPRPFPFPRP	-0.00711
RRIRERPPRLPRPRPRPWNQPRP	-0.124
RRIRMRPPRLPRPRPRPSWIPRP	0.0389

Sequence	shrunken log2 fold change
RRIRHRPPRLPRPRPRPTETPRP	0.146
RRIRKRPPRLPRPRPRPRDFPRP	0.188
RRIRGRPPRLPRPRPRPLEDPRP	0.205
RRIRQRPPRLPRPRPRPCWVPRP	-0.0437
RRIRPRPPRLPRPRPRPVPDPRP	0.00557
RRIRARPPRLPRPRPRPLIQPRP	0.0545
RRIRHRPPRLPRPRPRPSYMPRP	-0.00144
RRIRLRPPRLPRPRPRPDYQPRP	-0.137
RRIRRRPPRLPRPRPRPFTCPRP	-0.0792
RRIRTRPPRLPRPRPRPIMQPRP	-0.201
RRIRIRPPRLPRPRPRPKVEPRP	0.195
RRIRPRPPRLPRPRPRPTFCPRP	0.0727
RRIRARPPRLPRPRPRPCEAPRP	0.762
RRIRGRPPRLPRPRPRPVGHPRP	0.453
RRIRRRPPRLPRPRPRPRSNPRP	0.224
RRIRNRPPRLPRPRPRPLWGPRP	-0.192
RRIRQRPPRLPRPRPRPVCEPRP	-0.00878
RRIRSRPPRLPRPRPRPQLEPRP	0.455
RRIRARPPRLPRPRPRPIIGPRP	-0.065
RRIRGRPPRLPRPRPRPHATPRP	1.35
RRIRCRPPRLPRPRPRPGRTPRP	-0.106
RRIRPRPPRLPRPRPRPPWCPRP	0.0891
RRIRNRPPRLPRPRPRPGRTPRP	0.153
RRIRNRPPRLPRPRPRPLVHPRP	0.0443
RRIRLRPPRLPRPRPRPALMPRP	0.306

Sequence	shrunken log2 fold change
RRIRYRPPRLPRPRPRPLWSPRP	0.0381
RRIRHRPPRLPRPRPRPVHGPRP	0.131
RRIRGRPPRLPRPRPRPQYHPRP	-0.141
RRIRARPPRLPRPRPRPGFLPRP	0.426
RRIRSRPPRLPRPRPRPHPLPRP	-0.00402
RRIRVRPPRLPRPRPRPCCWPRP	-0.087
RRIRWRPPRLPRPRPRPCQNPRP	-0.118
RRIRQRPPRLPRPRPRPPNLPRP	-0.00283
RRIRTRPPRLPRPRPRPTRSPRP	-0.111
RRIRWRPPRLPRPRPRPIGKPRP	-0.0958
RRIRKRPPRLPRPRPRPDQEPRP	0.0193
RRIRQRPPRLPRPRPRPITKPRP	-0.0284
RRIRVRPPRLPRPRPRPEKVPRP	0.13
RRIRSRPPRLPRPRPRPDWNPRP	-0.298
RRIRVRPPRLPRPRPRPGFMPRP	-0.152
RRIRARPPRLPRPRPRPWDIPRP	0.173
RRIRERPPRLPRPRPRPMYIPRP	-0.289
RRIRFRPPRLPRPRPRPDRKPRP	0.00132
RRIRPRPPRLPRPRPRPLPTPRP	0.42
RRIRKRPPRLPRPRPRPMSPPRP	-0.0332
RRIRLRPPRLPRPRPRPTKMPRP	0.0743
RRIRCRPPRLPRPRPRPTVFPRP	0.197
RRIRWRPPRLPRPRPRPMSYPRP	-0.206
RRIRHRPPRLPRPRPRPAEKPRP	-0.0153
RRIRVRPPRLPRPRPRPRAKPRP	0.16

Sequence	shrunken log2 fold change
RRIRLRPPRLPRPRPRPEDCPRP	0.0408
RRIRHRPPRLPRPRPRPCIEPRP	-0.00547
RRIRIRPPRLPRPRPRPMNEPRP	0.0707
RRIRERPPRLPRPRPRPHGGPRP	-0.0234
RRIRGRPPRLPRPRPRPLEPPRP	0.231
RRIRARPPRLPRPRPRPRLQPRP	0.637
RRIRWRPPRLPRPRPRPESSPRP	0.759
RRIRVRPPRLPRPRPRPKMSPRP	-0.122
RRIRSRPPRLPRPRPRPDVGPRP	0.102
RRIRMRPPRLPRPRPRPYCTPRP	-0.00702
RRIRARPPRLPRPRPRPWGSPRP	0.115
RRIRKRPPRLPRPRPRPAPNPRP	0.631
RRIRVRPPRLPRPRPRPQMKPRP	-0.0794
RRIRRRPPRLPRPRPRPDWCPRP	0.201
RRIRLRPPRLPRPRPRPRHNPRP	-0.521
RRIRCRPPRLPRPRPRPWMWPRP	-0.00829
RRIRSRPPRLPRPRPRPIRMPRP	-0.109
RRIRVRPPRLPRPRPRPTLAPRP	0.797
RRIRDRPPRLPRPRPRPLFSPRP	0.0525
RRIRIRPPRLPRPRPRPIFVPRP	-0.28
RRIRTRPPRLPRPRPRPRGFPRP	0.732
RRIRWRPPRLPRPRPRPRWCPRP	-0.00787
RRIRSRPPRLPRPRPRPFVSPRP	-0.481
RRIRGRPPRLPRPRPRPFPEPRP	0.56
RRIRIRPPRLPRPRPRPPPHPRP	0.392

Sequence	shrunken log2 fold change
RRIRRRPPRLPRPRPRPYVPPRP	-0.241
RRIRMRPPRLPRPRPRPNDRPRP	0.141
RRIRLRPPRLPRPRPRPAEQPRP	0.0174
RRIRARPPRLPRPRPRPMKWPRP	0.126
RRIRIRPPRLPRPRPRPPDVPRP	-0.109
RRIRVRPPRLPRPRPRPMSGPRP	-0.0469
RRIRDRPPRLPRPRPRPTRDPRP	0.734
RRIRARPPRLPRPRPRPRCIPRP	0.459
RRIRGRPPRLPRPRPRPCIKPRP	0.268
RRIRWRPPRLPRPRPRPWFGPRP	-0.0254
RRIRARPPRLPRPRPRPVIAPRP	0.161
RRIRHRPPRLPRPRPRPARCPRP	0.252
RRIRKRPPRLPRPRPRPYQRPRP	-0.0062
RRIRLRPPRLPRPRPRPFWVPRP	-0.11
RRIRCRPPRLPRPRPRPKTWPRP	0.0688
RRIRFRPPRLPRPRPRPTNTPRP	-0.414
RRIRFRPPRLPRPRPRPPVEPRP	0.143
RRIRLRPPRLPRPRPRPPVWPRP	0.591
RRIRDRPPRLPRPRPRPNLWPRP	-0.0934
RRIRERPPRLPRPRPRPWSFPRP	-0.0191
RRIRFRPPRLPRPRPRPCDGPRP	-0.0604
RRIRMRPPRLPRPRPRPNYKPRP	-0.504
RRIRGRPPRLPRPRPRPLRFPRP	0.917
RRIRFRPPRLPRPRPRPFMCPRP	-0.98
RRIRARPPRLPRPRPRPGYAPRP	0.0374

Sequence	shrunken log2 fold change
RRIRSRPPRLPRPRPRPNQIPRP	0.0721
RRIRYRPPRLPRPRPRPPSPPRP	0.398
RRIRIRPPRLPRPRPRPKRCPRP	-0.00138
RRIRLRPPRLPRPRPRPHRSPRP	0.0989
RRIRYRPPRLPRPRPRPCVQPRP	-0.236
RRIRFRPPRLPRPRPRPQPFPRP	-0.0783
RRIRSRPPRLPRPRPRPKESPRP	0.284
RRIRHRPPRLPRPRPRPWWRPRP	0.219
RRIRIRPPRLPRPRPRPIVHPRP	-0.642
RRIRERPPRLPRPRPRPREAPRP	0.419
RRIRIRPPRLPRPRPRPYCCPRP	-0.476
RRIRHRPPRLPRPRPRPECNPRP	-0.0866
RRIRTRPPRLPRPRPRPLLDPRP	0.214
RRIRARPPRLPRPRPRPRCGPRP	0.609
RRIRCRPPRLPRPRPRPHKVPRP	-0.446
RRIRTRPPRLPRPRPRPCTWPRP	-0.0134
RRIRMRPPRLPRPRPRPAPVPRP	0.764
RRIRHRPPRLPRPRPRPRMAPRP	0.0651
RRIRWRPPRLPRPRPRPHWDPRP	-0.0409
RRIRPRPPRLPRPRPRPFFNPRP	-0.365
RRIRCRPPRLPRPRPRPWLIPRP	-0.564
RRIRTRPPRLPRPRPRPMCHPRP	-0.228
RRIRRRPPRLPRPRPRPCWRPRP	0.00446
RRIRQRPPRLPRPRPRPTAHPRP	-0.0756
RRIRRRPPRLPRPRPRPKVFPRP	-0.00912
